We go through 41 sequences from the nanobody polyreactivity screen of Harvey et al. (2022).

The nature of this data set: yeast display, Sf9 membrane polyspecificity reagent, FACS + sequencing; frameworks hold sequencing errors. The method, boiled down:
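Polyreactivity labels are assigned by the sorting gate from which each nanobody was recovered. The gates were low and high (top ~1%), set on anti-HA fluorescence for expression and streptavidin fluorescence for reagent binding. Before sorting, galactose-induced (36–48 hours) yeast display cells were stained for 1 hour at 4 °C with 10% biotinylated, detergent-solubilized Sf9 membrane reagent.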
Consider “QVQLVESGGGLVQAGGSLRLSCAASGFTFYIYVMGWYRQARGKERELVAAITWSGGRTYYADSVKGRFTISRDYAKNTVYLQMNSLKPEDTAVYYCAASYPGLSYHKYEYWGQGTQVTVSS”, for which the “polyreactivity (PSR sort gate)” value is recorded as “high polyreactivity”.

For “QVQLVESGGGLVQAGGSLRLSCAASGSIFSRYAMGRYRQAPGKERELVAAISKSGGSTYYADSVKGRFTISRDNAKNTVYLQMNSLKPEDTAVYYCNARDSPGQRRAEPYGYWGQGTQVTVSS”, the “polyreactivity (PSR sort gate)” value is recorded as “high polyreactivity”. As to “QVQLVESGGGLVQPGGSLRLSCAASGIIFDVYAMGWYRQAPGKERELVAGISSGGSTYYADSVKGRFTISRDNAKNTVYFQMNSLKPEDTAVYYCNADGGYSYESTDHYGYDYWGQGTQVTVSS”, the “polyreactivity (PSR sort gate)” value is recorded as “low polyreactivity”. With “QVQLVESGGRLVQAGGSLRLSCASSGSTFVPNDMGLYRQAPGKERELVAAISRSGDDTYYADSVKGRFTISRDNAKNNVYLQMNSLKPVYTAVYYCAASAGYAYNYWGQGTQVTVSS”, the “polyreactivity (PSR sort gate)” value was “low polyreactivity”. Next, “QVQLVESGGGLVQAGGSLRLSCAASGITLSIYAMGWYRQAPGKERELVAAINGNGGSTYYADSVKGRFTISRDNAKNTVYLQMNSLKPEDTAVYYCAVTDYVYEHDDYWGQGTQVTVSS”: “low polyreactivity”. Next, “QVQLVESGGGLVQAGGSLRLSCAASGSTFPRYAMGWYRPAPGKERELVARISNSGASTYYADSVKGRFTISRDNAKNTVYLQMNSLKPEDTAVYYCNARRYSRPSGFKHYHYAESDYWGQGTQVTVSS”: “high polyreactivity”; “QVQLVESGGGLVQAGGSLRLSCAASGFTFRYYAMGWYRQAPGKERELVASISRSGSTNYADSVKGRFTISRDNAKNTVYLQMNSLKPEDTAVYYCAAQLYSRGGYWGQGTQVTVSS”: “high polyreactivity”; “QVQLVESGGGLVQAGGSLRLSCAASGFIIGSYTMGWYRQAHGKERELVASITKRGGSTYYADSVKGRFTISRDNAKNTVYLQMNSLKPEDTSVYYCAATYWFSHRSRYDYWGQGTQVTVSS”: “high polyreactivity”.

On to “QVQLVESGGGLVQAGGSLRLSCAASGSTFAKYAMGWYRQAPGKERELVAVISWGGGSTYYADSVKGRFTISRDNAKNTVYLQMNSLKPEDTAVYYCAAVYDEYQTTHEYDYWGQGTQVTVSS”, for which the “polyreactivity (PSR sort gate)” value is reported as “low polyreactivity”.

Turning to “QVQLVETGGGLVQAGGSLRLSCAASGFILSLYAMGWYRQAPGKERELVAAISRSGASTSYADSVKGRFTISRDNAKNSVYLQMNSLKPEDTAVYYCNVRRWPYSPGYDYWGQGTQVTVSS”, the “polyreactivity (PSR sort gate)” value is given as “high polyreactivity”. As to “QVQLQESGGGLVQAGGSLRLSCAASGSISGPQVMGWYRQAPGKEREFVAAINVGANTYYADNVKGRFTISRDNAKNTVYLQMTSLKPEDTAVYYCAAVYYGDIGHEYWGQGTQVTVSC”, the “polyreactivity (PSR sort gate)” value is listed as “low polyreactivity”.

With “QVQLVESGGGLVQAGGSLRLSCAASGRIFSSNAMGWYRQAPGKARELVAAISTSGSTKYADSVKGRFTSSRDNAKNTVYLLMNSLKPEDTAVYYCAAKGYEYRYRYDYWGQGTQVTVSW”, the “polyreactivity (PSR sort gate)” value is given as “high polyreactivity”. Then “QVQLVESCGGLVQAGGSLRLSCAASGSTFAGYVMGWYRQAPGKERQFVAAISTSGGRTYYADSVKGRFTISRDNAKNTVYLQMNSLKPEDTAVYYCAARSVTYGGLGLYGYWGQGTQVTVSS”, with “high polyreactivity”; and “QVQLVESGGGLVQAGGSLLLSCAAAGSIFRTYAMGWYRQAPGKERELVAAISRSGSSTYYADSVKGRFTISRDNAKNTVYFQMNSLKPEDTAVYYCAALVRKYGVDYWGQGTQVTVSS”, with “high polyreactivity”; and “QVQLVESGGGLVQAGGSLRLSCAASGLTLYRNAMGWYRPAPGKVRELVAAITKSGARTYYADSVKGRFTISRDNAKNTVYLQMNSLKPEDTAVYYCAADALNTYNYWGQGTQVTVSS”, with “high polyreactivity”.

As for “QVQLVESGGCLVQAGGSLRLSCAASGRIFQRYAMGWYRQAPGKERELVAGITSAGGSTYYADSVKGRFTISRDNAKNTVYLQMKRLKPEDTAVYYCNAGGELRYYGYRAGGTTRSYDYWGQGTQVTVSS”, the “polyreactivity (PSR sort gate)” value is “low polyreactivity”. For the sequence “QVQLVESGGGLVQAGGSLRLSCDASGLIFYYYAMGWYRQAPGKERELVAAIRWSGGSTYYADSVKGRFTISRDNAKNTVYLQMNSLKPEDTAVYYCSEFYYWGQGTQVTVSS”, the “polyreactivity (PSR sort gate)” value is listed as “high polyreactivity”. Turning to “QVQLVESGGGLVQAGGSLRLSCAASGSNFHLYAMGWYRQAPGKERELVADIDLSGGSTYYADSVKGRFTISRDNAKNTVYLQMNSLKPEDTAVYYCGADHVSSLGFDYWGQGTEVTVSS”, the “polyreactivity (PSR sort gate)” value is on record as “low polyreactivity”. Regarding “QVQIVESGGGLVQAGGSLRISCAASGRTFVYNTMGWSRQAPGKERELVAAITDRGTSTFYADSVKGRFTISRDNAKNTVDLQMNSLKPEDTAVYYCAKDWLVTEFDYWAQGTQVTVSS”, the “polyreactivity (PSR sort gate)” value is on record as “low polyreactivity”. For the sequence “HVQLVESGGGLVQAGGSLRLSCAASGRIFVVYTMGWYRQAPGKERELVASIRGSGDSTNYADSVKGRFTLSRDNAKNTVYLQMNRLKPEDTAVYYCAADLPWSRRYSYRYGYWGQGTQVTVSS”, the “polyreactivity (PSR sort gate)” value is “low polyreactivity”. Regarding “QVQLVESGGGIVQAGGSLRLSCAASGSTFNDNAMGWYRQAPGNERELVAAITGGGGRTYYADSVKGRFTISRDNAKNTVYLQMNSLKPEATAVYYCNRGATFEYWGHGTQVTVSS”, the “polyreactivity (PSR sort gate)” value is “low polyreactivity”. Next, “QVQLVESGGGLVQAGGSLRLSCAASGFTFWQYAMGWNRQAPGKERELVAAITWDVGSTYYSDSVKGRFTISRDNAKNTVYLQLNSLKPEDTAVYYCAKLIGGTYYEDDYWGQGSQVTVSS”: “low polyreactivity”.

As for “QVQLVESGGGLVQAGGSLRLSCAASGSTLVYNDMGWYRQAPGKEREFVAAIRSNDGSTYYADSVKGRFTISRDNAKNTVYLQMNSLKPEDTAVYYCATTQAYRGENYNYWGQGTQVTVSS”, the “polyreactivity (PSR sort gate)” value was “low polyreactivity”. In the case of “QVQLVESGGGLVQAGGSLRLSCAASGLTLRRYAMGWYRQAPGKEREMVASINSGTSTKYADSVKGRFTISRDNAKNTVYLQMNSLKPEDTAVYYCGAAGYFPTAGSRRAYYYWGQGTQVSVSS”, the “polyreactivity (PSR sort gate)” value is reported as “high polyreactivity”. Consider “QVQLVESGGGLVQAGGSLRLSCAASGFIFGYYAMGWYRQAPGKERELVAAISSRGGSTYYADSVKGRFTISRDNAKNTVYLQMNSLKPEDTAVYYCAVRRVSFRHKFGQYDYWGQGTQVTVSA”, for which the “polyreactivity (PSR sort gate)” value was “high polyreactivity”. Consider “QVQLVESGGGLVQAGGSLRLSCAASGRIFVDNDMGWYRQAPGKERELVAAISGNGGNTNYADSVKGRFTISRDNAKNTVYFQMNSLKPEDTAVYYCAATYPVGHVYRYDYWGQGTQVTVSS”, for which the “polyreactivity (PSR sort gate)” value is “low polyreactivity”.

Consider “QVQLVESGGGLVQAGGSLRLSCAASGRTFWVYAMGWYRQAPGKERELVAAINNGGSTTYADSVKGRFTISRDNAKNTVYLQMNSLKPEDTAVYYCAADSVKQVRYGNVGHDYWGQGTQVTVSS”, for which the “polyreactivity (PSR sort gate)” value is “low polyreactivity”.

Regarding “QVQLVESGGGLVQAGGSLRLSCAASGGTLRRYAMGWYRQAPGKERELVAGITSGGSTDYADSVKGRFTISRDNAKNTVYLQMNSLKPEDTAVYYCAALVYRPTYGYIFDYWGQGTQVTVSS”, the “polyreactivity (PSR sort gate)” value is given as “high polyreactivity”. As to “QVQLVESGGGLVQAGGSLRLSCAASGNIFGFNAMGWYRQAPGKERELVAAINSGGSTYYADSVKGRFTISRDNAKNTLYLQMNSLKPEDTAVYYCAAVRGKYRFGFWGQGTQVTVSS”, the “polyreactivity (PSR sort gate)” value is “high polyreactivity”. For the sequence “QVQLVESGGGLVQAGGSLRLSCAASGFTFRRYAMGWYRQAPGKEREFVAAITRSSGRTYYADSVKGRFTISRDNAKNTVYLQMNSLKPEDTAVYYCNRDTSIRHYNYWGQGTQVTVSS”, the “polyreactivity (PSR sort gate)” value is listed as “high polyreactivity”.

With “QVQLVESGGGLVQAGGSLRLSCAASGFIFYYNAMGWYRQAPGKERELVAAISTDGGSTYYADSVKGRFTISRDNAKNTVYLQMNSLKPEDTAVYYCAANRYKRYDYWGQGTQVTVSS”, the “polyreactivity (PSR sort gate)” value is recorded as “low polyreactivity”. Take “QVQLVESGGGLVQAGGSLRLSCAASGSTFRFYTMGWYRPAPGKERELVATISRGGSTYADSVKGRFTISRDNAKNTVYLQMYSLKPEDTAVYYCAKRGYSSWPYDYWGQGTQVSVSS”: the “polyreactivity (PSR sort gate)” value is recorded as “low polyreactivity”. Then “QVQHVESGGGLVQAGGSLRLSCASSGRIIGKYVMAWYRQAPGKERELVAGISWSAGSTYYADSVKGRFTISRDNAKNTVYLQMNSLKPEDTAVYYCAAGLEGVYDYWGQGTQVTVSS”, with “low polyreactivity”. For the sequence “QVQLVESGGGLVQAGGSLRLSCAASGSIYRNNAMGWYRQAPGKERELVAVISRRAGNTYYAVSVKGRFTISRDNAKNTVYLQMNSLKPEDTAVYYCAADYSKSSIRGDYWGQGTQVTVSS”, the “polyreactivity (PSR sort gate)” value is “low polyreactivity”. Turning to “QVQLVESGGGLVQAGGSLRLSCAASGYTFDYNAMGSYRQAPGKERELVADITGSGASTSYADSVKGRFTISRDYAKNTVYLQMNSLKPEDTAVYYCNADDSYFYELYGYWGQGTQVTVSS”, the “polyreactivity (PSR sort gate)” value is “low polyreactivity”.

Take “QVQLVETGGGLVQAGGSLRLSCAASGYIFYVYAMGWYRQPPGKERELVAAINSGDITYYADSVKGRFTISRDNAKNTVYLQMNRLKPEDTAVYFGATVLILIYDYWGQGTQVTVSS”: the “polyreactivity (PSR sort gate)” value is “low polyreactivity”.

In the case of “QVQLVESGGGLVQAGGSLRLSCAASGIIFFDYAMGWYRQAPGKERELVAAITGSGGRTYYADSVKGRFTISRDNAKNTVYLQMNSLKPEDTAVYYCAAARYYYGGDYWGQGTQVTVST”, the “polyreactivity (PSR sort gate)” value is “high polyreactivity”. Next, “QVQLVESGGGLVQAGGSLRLSCAASGRIFYYNDMGWYRQAPGKERELVATITIGNSTNYADSVKGRFTISRDNAKNTVYLQMNSLKPEDTAVYYCNADYSDVTTGDWRYENDYWGQGTQVTVSS”: “low polyreactivity”. “QVQLVESGGGLVQAGGSLRLSCAASGSIFPAYAMGWYRQAPGKERELVAAITRGGSTDYADSVKGRFTISRDNAKNTVYLQMNSLKPEDTAVYYCATGDGPSLFDYWGQGTQVTVSS”: the “polyreactivity (PSR sort gate)” value is recorded as “low polyreactivity”. For “QVHLVESGGGLFQAGGSLRLIFAASGLIFYKNAMGWYRQAPGKERELVAISSSGGSTYYADSVKGRFTISRDNAKNSVYLQMHSLKPEDSAVYYCAARSRRYGGGYWGQGTQVTVSS”, the “polyreactivity (PSR sort gate)” value is recorded as “high polyreactivity”. For “QLQLVESGGGLVQAGGSLRLSCAASGRTFWYYAMGWYRQAPGKESELVAGISRGGSTNYADSVKGRFTISRDNAKNTVYLQMKSLKPADTAVYYCIVGRWYSQGTTGVFKGGYWGQGTQVTVSS”, the “polyreactivity (PSR sort gate)” value is “low polyreactivity”.
